Assay results as given in patent US20110059889A1 (SYNTONIX PHARMACEUTICALS, published 2011).
Where two headings read alike, the source gives them in different places. Bridge positions count the residues as written; N and C are the ends. Square brackets hold non-standard residues; d marks the D form. Ends that are not written are not given here. Phe(3-Me) = Cc1cccc(C[C@H](N)C(=O)O)c1; NMeL = CN[C@@H](CC(C)C)C(=O)O; Pen = CC(C)(S)[C@H](N)C(=O)O; hCys = N[C@@H](CCS)C(=O)O; Sar = CNCC(=O)O

What was measured:
[1] = target: T1, soluble human FcRn (shFcRn) (human, UniProt P55899 24-297; P61769 21-119); assay: SPR pH 6
T1 construct: Biotinylated for the ELISA, amine-coupled to a CM5 chip for SPR; also called biotinylated shFcRn
T1 sequence (P55899 24-297 limits assumed, chain 1 of 2): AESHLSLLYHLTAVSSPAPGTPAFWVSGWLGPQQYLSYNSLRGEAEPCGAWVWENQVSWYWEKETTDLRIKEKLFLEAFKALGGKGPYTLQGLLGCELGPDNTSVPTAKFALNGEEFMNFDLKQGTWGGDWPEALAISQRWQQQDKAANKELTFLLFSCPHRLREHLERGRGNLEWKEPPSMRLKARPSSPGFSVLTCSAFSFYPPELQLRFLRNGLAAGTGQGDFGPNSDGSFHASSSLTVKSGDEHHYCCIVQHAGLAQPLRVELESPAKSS
T1 sequence (P61769 21-119 limits assumed, chain 2 of 2): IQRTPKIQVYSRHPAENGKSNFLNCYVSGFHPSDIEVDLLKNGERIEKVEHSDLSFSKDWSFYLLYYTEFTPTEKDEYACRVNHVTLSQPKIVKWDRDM
Method: (§1) The following steps were performed to cross-link soluble human or cynomolgus FcRn to the dextran surface of a CM5 sensor chip (Biacore AB, Uppsala, Sweden) by an amine coupling reaction involving 1-ethyl-(3-dimethylaminopropyl)-carbodiimide hydrochloride (EDC) (Biacore AB, Uppsala, Sweden) and N-hydroxysuccinimide (NHS) (Biacore AB, Uppsala, Sweden) as recommended by Biacore (BIAapplications Handbook, version AB, section 4.2, Biacore AB, Uppsala, Sweden). […] Residual sites on the FcRn flow cell were blocked with 1 M ethanolamine hydrochloride pH 8.5 (Biacore AB, Uppsala, Sweden). A control flow cell was blocked with ethanolamine for reference subtraction. For analysis of the monomeric peptides, FcRn was coated to a final density of 4000-5000 response units (RU). For analysis of the peptide dimers, FcRn was coated to a density of 2000-2500 RU. All SPR measurements were performed using a BIACORE 3000 Instrument (Biacore AB Uppsala, Sweden). For measurements done at either pH 6 or pH 7.4, experiments were performed in 50 mM phosphate, 100 mM sodium chloride, 0.01% surfactant P20 (Biacore AB, Uppsala, Sweden).
(§2) Ten, 2-fold dilutions of the peptide were injected over the FcRn-CM5 chip at a rate of 20 μl/min for 2 min. The peptide was dissociated from the chip for 2.5 minutes with buffer. Any remaining peptide was removed from the chip with a 30 second injection of HBS-P buffer (Biacore AB, Uppsala, Sweden) at a rate of 30 μl/min. Sensorgrams were generated and analyzed using BiaEval software version 3.1 (Biacore AB, Uppsala, Sweden). The equilibrium RU observed for each injection was plotted against concentration. The equilibrium KD values were derived by analysis of the plots using the steady state affinity model included in the BiaEval software.

[2] = target: T1, soluble human FcRn (shFcRn); assay: IgG competition ELISA
Method: (§3) The wells were coated with 100 μl/well of 1 μg/ml biotinylated-shFcRn in Buffer A. The plate was sealed and incubated at 37° C. for 2 hours. Afterwards, the plate was washed with 200 μl/well of Buffer B (Buffer B: 100 mM MES pH 6, 150 mM NaCl, 0.5% BSA IgG-free (Jackson ImmunoResearch, West Grove, Pa.), 0.05% Tween-20). […] To allow for mixing, the plate was rocked for 2 minutes, sealed and incubated at 37° C. for 2 hours. […] The plate was covered, incubated for 30 minutes at room temperature and washed 4 times with 200 μl/well of ice-cold buffer B. SureBlue TMB substrate solution (100 μl/well, KPL, Gaithersburg, Md.) was added and the plate was allowed to incubate at room temperature until color developed, which took 5 to 10 minutes. Once color developed, 100 μl/well of TMB stop solution (KPL, Gaithersburg, Md.) was added and the absorbance was measured at 450 nm. The data was plotted as absorbance vs. peptide concentration to derive the inhibitory concentration 50% (IC₅₀) values.

[3] = target: T1, soluble human FcRn (shFcRn); assay: IgG competition ELISA; remark: listed apart in the source
Method: as §3

[4] = target: T1, soluble human FcRn (shFcRn); assay: SPR pH 6; remark: listed apart in the source
Method: as §1, §2

[5] = target: T1, soluble human FcRn (shFcRn); assay: SPR pH 6; remark: listed apart in the source
Method: as §1, §2

[6] = target: T1, soluble human FcRn (shFcRn); assay: IgG competition ELISA; remark: listed apart in the source
Method: as §3

B1: Peptide No. 70 (peptide)
peptide: QRF[hCys]TGHFGGLYP[Pen]NGP-NH2
modifications: disulfide 4-14; N-terminus assumed
SMILES: CC(C)C[C@@H]1NC(=O)CNC(=O)CNC(=O)[C@H](Cc2ccccc2)NC(=O)[C@H](Cc2c[nH]cn2)NC(=O)CNC(=O)[C@H]([C@@H](C)O)NC(=O)[C@@H](NC(=O)[C@H](Cc2ccccc2)NC(=O)[C@H](CCCNC(=N)N)NC(=O)[C@@H](N)CCC(N)=O)CCSSC(C)(C)[C@@H](C(=O)N[C@@H](CC(N)=O)C(=O)NCC(=O)N2CCC[C@H]2C(N)=O)NC(=O)[C@@H]2CCCN2C(=O)[C@H](Cc2ccc(O)cc2)NC1=O
[1]
  Kd: 2.1 µM

B2: Peptide No. 295 (peptide)
peptide: QRF[Pen]TGHFG[dP]LYP[Pen]NGP-NH2
modifications: disulfide 4-14; N-terminus assumed
SMILES: CC(C)C[C@@H]1NC(=O)[C@H]2CCCN2C(=O)CNC(=O)[C@H](Cc2ccccc2)NC(=O)[C@H](Cc2c[nH]cn2)NC(=O)CNC(=O)[C@H]([C@@H](C)O)NC(=O)[C@@H](NC(=O)[C@H](Cc2ccccc2)NC(=O)[C@H](CCCNC(=N)N)NC(=O)[C@@H](N)CCC(N)=O)C(C)(C)SSC(C)(C)[C@@H](C(=O)N[C@@H](CC(N)=O)C(=O)NCC(=O)N2CCC[C@H]2C(N)=O)NC(=O)[C@@H]2CCCN2C(=O)[C@H](Cc2ccc(O)cc2)NC1=O
[1]
  Kd: 0.28 µM
[2]
  IC50: 1.6 µM

B3: Peptide No. 218 (peptide)
peptide: RF[Pen]TGHF[dV][Sar][NMeL]YPC-NH2
modifications: disulfide 3-13; N-terminus assumed
SMILES: CC(C)C[C@H]1C(=O)N[C@@H](Cc2ccc(O)cc2)C(=O)N2CCC[C@H]2C(=O)N[C@H](C(N)=O)CSSC(C)(C)[C@H](NC(=O)[C@H](Cc2ccccc2)NC(=O)[C@@H](N)CCCNC(=N)N)C(=O)N[C@@H]([C@@H](C)O)C(=O)NCC(=O)N[C@@H](Cc2c[nH]cn2)C(=O)N[C@@H](Cc2ccccc2)C(=O)N[C@H](C(C)C)C(=O)N(C)CC(=O)N1C
[3]
  IC50: > 50 µM

B4: Peptide No. 219 (peptide)
peptide: RF[Pen]TGHF[dL][Sar][NMeL]YPC-NH2
modifications: disulfide 3-13; N-terminus assumed
SMILES: CC(C)C[C@H]1NC(=O)[C@H](Cc2ccccc2)NC(=O)[C@H](Cc2c[nH]cn2)NC(=O)CNC(=O)[C@H]([C@@H](C)O)NC(=O)[C@@H](NC(=O)[C@H](Cc2ccccc2)NC(=O)[C@@H](N)CCCNC(=N)N)C(C)(C)SSC[C@@H](C(N)=O)NC(=O)[C@@H]2CCCN2C(=O)[C@H](Cc2ccc(O)cc2)NC(=O)[C@H](CC(C)C)N(C)C(=O)CN(C)C1=O
[4]
  Kd: 0.47 µM
[3]
  IC50: 4 µM

B5: Peptide No. 240 (peptide)
peptide: RF[Pen]TGHF[dT][Sar][NMeL]YPC-NH2
modifications: disulfide 3-13; N-terminus assumed
SMILES: CC(C)C[C@H]1C(=O)N[C@@H](Cc2ccc(O)cc2)C(=O)N2CCC[C@H]2C(=O)N[C@H](C(N)=O)CSSC(C)(C)[C@H](NC(=O)[C@H](Cc2ccccc2)NC(=O)[C@@H](N)CCCNC(=N)N)C(=O)N[C@@H]([C@@H](C)O)C(=O)NCC(=O)N[C@@H](Cc2c[nH]cn2)C(=O)N[C@@H](Cc2ccccc2)C(=O)N[C@H]([C@H](C)O)C(=O)N(C)CC(=O)N1C
[4]
  Kd: 4.8 µM
[3]
  IC50: 71 µM

B6: Peptide No. 241 (peptide)
peptide: RF[Pen]TGHF[dS][Sar][NMeL]YPC-NH2
modifications: disulfide 3-13; N-terminus assumed
SMILES: CC(C)C[C@H]1C(=O)N[C@@H](Cc2ccc(O)cc2)C(=O)N2CCC[C@H]2C(=O)N[C@H](C(N)=O)CSSC(C)(C)[C@H](NC(=O)[C@H](Cc2ccccc2)NC(=O)[C@@H](N)CCCNC(=N)N)C(=O)N[C@@H]([C@@H](C)O)C(=O)NCC(=O)N[C@@H](Cc2c[nH]cn2)C(=O)N[C@@H](Cc2ccccc2)C(=O)N[C@H](CO)C(=O)N(C)CC(=O)N1C
[4]
  Kd: 1.1 µM
[3]
  IC50: 23 µM

B7: Peptide No. 243 (peptide)
peptide: RF[Pen]TGHF[dN][Sar][NMeL]YPC-NH2
modifications: disulfide 3-13; N-terminus assumed
SMILES: CC(C)C[C@H]1C(=O)N[C@@H](Cc2ccc(O)cc2)C(=O)N2CCC[C@H]2C(=O)N[C@H](C(N)=O)CSSC(C)(C)[C@H](NC(=O)[C@H](Cc2ccccc2)NC(=O)[C@@H](N)CCCNC(=N)N)C(=O)N[C@@H]([C@@H](C)O)C(=O)NCC(=O)N[C@@H](Cc2c[nH]cn2)C(=O)N[C@@H](Cc2ccccc2)C(=O)N[C@H](CC(N)=O)C(=O)N(C)CC(=O)N1C
[4]
  Kd: 2.1 µM
[3]
  IC50: 29 µM

B8: Peptide No. 89 (peptide)
peptide: QRF[Pen]TGH[Phe(3-Me)]GGLYPCNGP-NH2
modifications: disulfide 4-14; N-terminus assumed
SMILES: Cc1cccc(C[C@@H]2NC(=O)[C@H](Cc3c[nH]cn3)NC(=O)CNC(=O)[C@H]([C@@H](C)O)NC(=O)[C@@H](NC(=O)[C@H](Cc3ccccc3)NC(=O)[C@H](CCCNC(=N)N)NC(=O)[C@@H](N)CCC(N)=O)C(C)(C)SSC[C@@H](C(=O)N[C@@H](CC(N)=O)C(=O)NCC(=O)N3CCC[C@H]3C(N)=O)NC(=O)[C@@H]3CCCN3C(=O)[C@H](Cc3ccc(O)cc3)NC(=O)[C@H](CC(C)C)NC(=O)CNC(=O)CNC2=O)c1
[5]
  Kd: 0.67 µM
[6]
  IC50: 4.1 µM

B9: Peptide No. 27 (peptide)
peptide: QRFCTGHFGGLYP[hCys]NGP-NH2
modifications: disulfide 4-14; N-terminus assumed
SMILES: CC(C)C[C@@H]1NC(=O)CNC(=O)CNC(=O)[C@H](Cc2ccccc2)NC(=O)[C@H](Cc2c[nH]cn2)NC(=O)CNC(=O)[C@H]([C@@H](C)O)NC(=O)[C@@H](NC(=O)[C@H](Cc2ccccc2)NC(=O)[C@H](CCCNC(=N)N)NC(=O)[C@@H](N)CCC(N)=O)CSSCC[C@@H](C(=O)N[C@@H](CC(N)=O)C(=O)NCC(=O)N2CCC[C@H]2C(N)=O)NC(=O)[C@@H]2CCCN2C(=O)[C@H](Cc2ccc(O)cc2)NC1=O
[1]
  Kd: 3.9 µM
[2]
  IC50: 21 µM

B10: Peptide No. 28 (peptide)
peptide: QRF[hCys]TGHFGGLYP[hCys]NGP-NH2
modifications: disulfide 4-14; N-terminus assumed
SMILES: CC(C)C[C@@H]1NC(=O)CNC(=O)CNC(=O)[C@H](Cc2ccccc2)NC(=O)[C@H](Cc2c[nH]cn2)NC(=O)CNC(=O)[C@H]([C@@H](C)O)NC(=O)[C@@H](NC(=O)[C@H](Cc2ccccc2)NC(=O)[C@H](CCCNC(=N)N)NC(=O)[C@@H](N)CCC(N)=O)CCSSCC[C@@H](C(=O)N[C@@H](CC(N)=O)C(=O)NCC(=O)N2CCC[C@H]2C(N)=O)NC(=O)[C@@H]2CCCN2C(=O)[C@H](Cc2ccc(O)cc2)NC1=O
[1]
  Kd: 3.8 µM
[2]
  IC50: 20 µM

B11: Peptide No. 34 (peptide)
peptide: QRF[Pen]TGHFGGLYP[Pen]NGP-NH2
modifications: disulfide 4-14; N-terminus assumed
SMILES: CC(C)C[C@@H]1NC(=O)CNC(=O)CNC(=O)[C@H](Cc2ccccc2)NC(=O)[C@H](Cc2c[nH]cn2)NC(=O)CNC(=O)[C@H]([C@@H](C)O)NC(=O)[C@@H](NC(=O)[C@H](Cc2ccccc2)NC(=O)[C@H](CCCNC(=N)N)NC(=O)[C@@H](N)CCC(N)=O)C(C)(C)SSC(C)(C)[C@@H](C(=O)N[C@@H](CC(N)=O)C(=O)NCC(=O)N2CCC[C@H]2C(N)=O)NC(=O)[C@@H]2CCCN2C(=O)[C@H](Cc2ccc(O)cc2)NC1=O
[1]
  Kd: 0.37 µM
[2]
  IC50: 2 µM
